Experiments:
FES^WT [1] = target: T1, FES^WT (Homo sapiens, UniProt P07332); test: In vitro TR-FRET kinase assay; format: biochemical; conditions: TR-FRET assay, 5 µM ATP; n = 3
T1 construct: human FES cDNA encoding residues 448–822 or human FER cDNA encoding residues 448–820 was amplified by PCR; made in house; host or cells: E. coli BL21(DE3), co-expressing YopH phosphatase
Method: All measurements were performed in triplicate.

FES^S700C = FES^S700C (Homo sapiens, UniProt P07332, S700C); test: In vitro TR-FRET kinase assay; format: biochemical; parameters: human FES cDNA encoding residues 448–822 or human FER cDNA encoding residues 448–820 was amplified by PCR; made in house; host or cells: E. coli BL21(DE3), co-expressing YopH phosphatase
Chain of FES^S700C (P07332 448-822 S700C): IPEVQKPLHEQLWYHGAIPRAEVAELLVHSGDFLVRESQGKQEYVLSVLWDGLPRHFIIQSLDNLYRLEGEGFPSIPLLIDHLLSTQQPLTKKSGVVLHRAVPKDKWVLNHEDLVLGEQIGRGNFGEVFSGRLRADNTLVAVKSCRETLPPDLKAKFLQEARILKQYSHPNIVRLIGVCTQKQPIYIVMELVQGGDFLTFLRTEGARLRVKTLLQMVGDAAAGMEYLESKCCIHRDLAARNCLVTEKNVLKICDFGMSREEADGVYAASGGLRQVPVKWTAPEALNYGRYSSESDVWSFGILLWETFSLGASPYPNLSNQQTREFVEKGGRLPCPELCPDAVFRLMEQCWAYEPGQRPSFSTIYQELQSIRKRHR

FES^WT [2] = target: T1, FES^WT; test: PamChip microarray peptide phosphorylation; format: biochemical; conditions: peptide substrate phosphorylated by FES - WT
ABL1 = ABL1 (Homo sapiens, UniProt P00519); test: PamChip microarray peptide phosphorylation; conditions: peptide substrate phosphorylated by ABL1
Chain of ABL1 (P00519 whole entry): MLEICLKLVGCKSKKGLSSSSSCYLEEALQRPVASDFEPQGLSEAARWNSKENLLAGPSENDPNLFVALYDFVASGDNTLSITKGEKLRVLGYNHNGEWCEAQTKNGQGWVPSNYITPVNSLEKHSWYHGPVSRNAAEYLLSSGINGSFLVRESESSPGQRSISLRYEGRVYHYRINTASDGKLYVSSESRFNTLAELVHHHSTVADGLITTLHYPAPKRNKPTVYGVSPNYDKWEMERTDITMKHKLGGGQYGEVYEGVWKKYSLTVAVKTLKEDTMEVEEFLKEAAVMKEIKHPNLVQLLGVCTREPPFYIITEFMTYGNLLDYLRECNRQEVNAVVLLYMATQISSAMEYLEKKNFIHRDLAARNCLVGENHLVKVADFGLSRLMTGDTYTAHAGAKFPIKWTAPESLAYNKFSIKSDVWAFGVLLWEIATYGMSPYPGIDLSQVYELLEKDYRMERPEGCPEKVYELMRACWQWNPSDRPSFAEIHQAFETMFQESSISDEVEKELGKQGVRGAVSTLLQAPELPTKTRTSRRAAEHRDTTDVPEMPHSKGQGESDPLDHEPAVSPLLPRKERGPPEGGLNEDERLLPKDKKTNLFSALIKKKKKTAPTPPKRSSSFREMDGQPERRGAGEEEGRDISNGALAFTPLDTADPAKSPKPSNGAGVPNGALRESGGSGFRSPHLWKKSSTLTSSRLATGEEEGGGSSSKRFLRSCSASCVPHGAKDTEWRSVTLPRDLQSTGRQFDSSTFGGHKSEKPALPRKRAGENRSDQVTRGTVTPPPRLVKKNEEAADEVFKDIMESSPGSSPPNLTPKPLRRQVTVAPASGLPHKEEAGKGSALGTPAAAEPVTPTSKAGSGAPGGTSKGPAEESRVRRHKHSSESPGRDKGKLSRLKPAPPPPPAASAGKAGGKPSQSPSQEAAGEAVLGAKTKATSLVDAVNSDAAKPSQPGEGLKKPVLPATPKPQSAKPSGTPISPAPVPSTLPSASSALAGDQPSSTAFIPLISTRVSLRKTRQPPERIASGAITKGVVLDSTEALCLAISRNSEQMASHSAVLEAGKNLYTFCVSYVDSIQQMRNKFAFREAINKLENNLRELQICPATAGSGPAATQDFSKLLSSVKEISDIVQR

CSK = CSK (Homo sapiens, UniProt P41240); test: PamChip microarray peptide phosphorylation; conditions: peptide substrate phosphorylated by CSK
Chain of CSK (P41240 whole entry): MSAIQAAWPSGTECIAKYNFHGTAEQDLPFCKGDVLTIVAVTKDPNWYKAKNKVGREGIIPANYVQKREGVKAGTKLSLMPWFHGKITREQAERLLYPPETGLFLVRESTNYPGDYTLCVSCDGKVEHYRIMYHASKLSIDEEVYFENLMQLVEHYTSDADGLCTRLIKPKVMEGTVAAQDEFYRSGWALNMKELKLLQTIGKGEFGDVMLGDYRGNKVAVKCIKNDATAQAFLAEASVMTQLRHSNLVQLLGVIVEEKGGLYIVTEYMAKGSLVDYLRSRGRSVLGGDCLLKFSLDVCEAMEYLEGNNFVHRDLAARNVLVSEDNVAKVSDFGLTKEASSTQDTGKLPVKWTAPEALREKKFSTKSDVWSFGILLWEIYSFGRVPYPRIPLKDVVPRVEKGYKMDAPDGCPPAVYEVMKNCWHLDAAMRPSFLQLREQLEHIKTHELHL

FGR = FGR (Homo sapiens, UniProt P09769); test: PamChip microarray peptide phosphorylation; conditions: peptide substrate phosphorylated by FGR
LYN = LYN (Homo sapiens, UniProt P07948); test: PamChip microarray peptide phosphorylation; conditions: peptide substrate phosphorylated by LYN
Chain of LYN (P07948 whole entry): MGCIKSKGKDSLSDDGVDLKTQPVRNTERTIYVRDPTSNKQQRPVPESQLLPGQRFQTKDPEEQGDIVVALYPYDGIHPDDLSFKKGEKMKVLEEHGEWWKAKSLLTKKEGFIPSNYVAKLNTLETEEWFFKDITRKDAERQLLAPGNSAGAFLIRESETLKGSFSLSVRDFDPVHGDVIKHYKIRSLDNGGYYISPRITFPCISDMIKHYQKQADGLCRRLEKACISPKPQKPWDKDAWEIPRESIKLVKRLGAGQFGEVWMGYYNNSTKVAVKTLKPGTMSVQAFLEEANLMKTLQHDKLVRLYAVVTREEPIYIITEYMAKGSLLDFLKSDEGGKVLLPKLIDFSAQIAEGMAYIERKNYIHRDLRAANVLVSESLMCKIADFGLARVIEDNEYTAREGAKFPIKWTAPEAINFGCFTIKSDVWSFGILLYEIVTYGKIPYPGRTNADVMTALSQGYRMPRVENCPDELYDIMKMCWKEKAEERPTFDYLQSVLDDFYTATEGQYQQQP

SYK = SYK (Homo sapiens, UniProt P43405); test: PamChip microarray peptide phosphorylation; conditions: peptide substrate phosphorylated by SYK

T1 sequence (P07332 448-822): as the sequence (P07332 448-822 S700C) above, with C253S counted along it

| Molecule | pIC50 FES^WT (FES^WT [1]) | Apparent fold selectivity (FES^S700C; IC50 on FES^WT divided by IC50 on FES^S700C) [fold] | pIC50 FES^S700C (FES^S700C; TR-FRET assay, 5 µM ATP, n = 3) | Relative phosphorylation (% of highest signal) (FES^WT [2]) | Relative phosphorylation (% of highest signal) (ABL1) | Relative phosphorylation (% of highest signal) (CSK) | Relative phosphorylation (% of highest signal) (FGR) | Relative phosphorylation (% of highest signal) (LYN) | Relative phosphorylation (% of highest signal) (SYK) |
| --- | --- | --- | --- | --- | --- | --- | --- | --- | --- |
| C=CC(=O)Nc1cccc(Nc2nc(Nc3ccccc3OC)ncc2Cl)c1 [Compound 3] | 6.5 ± 0.06 | 0.65 | 6.3 ± 0.06 |  |  |  |  |  |  |
| VGFR2_1168_1180 (AQQDGKDYIVLPI; UniProt P35968 1168-1180, looked up, fragment) |  |  |  | 6.1 % of highest signal | 0.014 % of highest signal | 0.544 % of highest signal | -1.8 % of highest signal | 0.147 % of highest signal | 2.7 % of highest signal |
| VGFR2_1207_1219_C1208S (VSDPKFHYDNTAG; UniProt P35968 1207-1219, looked up, variant C1208S) |  |  |  | 0.5 % of highest signal | -0.742 % of highest signal | -1.4 % of highest signal | -0.6 % of highest signal | -0.213 % of highest signal | -1.4 % of highest signal |
| VGFR3_1061_1073 (DIYKDPDYVRKGS; UniProt P35916 1061-1073, looked up, fragment) |  |  |  | -0.0595 % of highest signal | 2.9 % of highest signal | 0.341 % of highest signal | 0.468 % of highest signal | 0.0483 % of highest signal | 2.4 % of highest signal |
| VINC_815_827 (KSFLDSGYRILGA; UniProt P18206 815-827, looked up, fragment) |  |  |  | 0.223 % of highest signal | 1.1 % of highest signal | -0.442 % of highest signal | -2.6 % of highest signal | -0.3 % of highest signal | -1.0 % of highest signal |
| ZAP70_485_497 (ALGADDSYYTARS; UniProt P43403 485-497, looked up, fragment) |  |  |  | 3.5 % of highest signal | -0.0741 % of highest signal | 0.277 % of highest signal | 7.8 % of highest signal | 1.0 % of highest signal | 10.4 % of highest signal |
| ZBT16_621_633 (LRTHNGASPYQCT; UniProt Q05516 621-633, looked up, fragment) |  |  |  | 0.657 % of highest signal | -0.119 % of highest signal | -0.468 % of highest signal | 3.8 % of highest signal | -0.2 % of highest signal | -1.0 % of highest signal |

Source: article PMC7316778 (Nature Communications, 2020)
